For four molecules, Kd results are on record in PMC3268024, “Role of Linkers between Zinc Fingers in Spacing Recognition by Plant TFIIIA-Type Zinc-Finger Proteins”.

First the molecules themselves.
T1: ZPT2-14ZF (UniProt O22086 41-117)
T1 sequence: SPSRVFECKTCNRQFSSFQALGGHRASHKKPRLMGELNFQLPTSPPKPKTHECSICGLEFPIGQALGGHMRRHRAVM

B1: AGT-10-ACT (dsDNA)
DNA 1: CTCGAGAAATTTCCCGGAATTCCAGTGGGAAATTTCACTGGCCGGAATTTCCCGGGGGGATCC
DNA 2: GGATCCCCCCGGGAAATTCCGGCCAGTGAAATTTCCCACTGGAATTCCGGGAAATTTCTCGAG
B2: ACT-10-AGT (dsDNA)
DNA 1: CTCGAGAAATTTCCCGGAATTCCACTGGGAAATTTCAGTGGCCGGAATTTCCCGGGGGGATCC
DNA 2: GGATCCCCCCGGGAAATTCCGGCCACTGAAATTTCCCAGTGGAATTCCGGGAAATTTCTCGAG
B3: AGT-5-AGT (dsDNA)
DNA 1: CTCGAGAAATTTCCCGGAATTCCAGTGATCCAGTGGCCGGAATTTCCCGGGGGGATCC
DNA 2: GGATCCCCCCGGGAAATTCCGGCCACTGGATCACTGGAATTCCGGGAAATTTCTCGAG
B4: AGT-5-ACT (dsDNA)
DNA 1: CTCGAGAAATTTCCCGGAATTCCAGTGATCCACTGGCCGGAATTTCCCGGGGGGATCC
DNA 2: GGATCCCCCCGGGAAATTCCGGCCAGTGGATCACTGGAATTCCGGGAAATTTCTCGAG

The series concerns the target T1, ZPT2-14ZF. Put plainly: EMSA; 25 mM HEPES-KOH pH 7.6, 40 mM KCl, 0.1% NP-40, 10 uM ZnCl2, 1 mg/mL BSA, 10% glycerol, 10 ug/mL poly(dI-dC), 1 mM DTT, 0.15 nM probe, 25 min at 20 C. The following applies: protein: recombinant; tags: MBP fusion cleaved with TEV protease; untagged; label: 32P end.
Regarding B1, the Kd is 10.4 ± 1.6 nM.
Regarding B2, the Kd was determined as 11.6 ± 1.9 nM.
For B3, the Kd amounted to 9.1 ± 1.2 nM.
With B4, the dissociation constant (Kd) was determined as 21.7 ± 3.4 nM.
